What is called Kd is a measure of binding affinity in units of concentration. The low end stands for tighter binding, the high end for weaker binding.

Where two headings read alike, the source gives them in different places.

Data on four molecules can be found in patent US20070134256A1 (US Dept. of Health and Human Services, published 2007).

Assay [1] concerns the target T1, dengue type 4 virus (DENV-4), strain 814669, virions (dengue type 4 virus, UniProt P09866 280-774; P09866 114-279). The assay is described as follows: ELISA, virion-coated plate, Fab from ~300 µg/ml.
The target of assay [2] is T2, dengue type 2 virus (DENV-2), prototype New Guinea C strain, virions (dengue type 2 virus, UniProt P14340 281-775; P14340 115-280). The assay can be described thus: ELISA, virion-coated plate, Fab from ~300 µg/ml. A general note: In an ELISA, binding on a coated surface is turned into a signal by an enzyme label.
The target of assay [3] is T3, dengue type 3 virus (DENV-3), strain H87, virions (dengue type 3 virus, UniProt P27915 281-773; P27915 115-280). The assay can be described thus: ELISA, virion-coated plate, Fab from ~300 µg/ml.
In assay [4] the target is T4, dengue type 1 virus (DENV-1), Western Pacific strain, virions (dengue type 1 virus, UniProt P17763 281-775; P17763 115-280). The assay is described as follows: ELISA, virion-coated plate, Fab from ~300 µg/ml.
Assay [5] has as its target T1, dengue type 4 virus (DENV-4), strain …. The assay is described as follows: cell-based or functional assay.
Assay [6] has as its target T5, DENV-4 E glycoprotein (dengue type 4 virus, UniProt P09866 280-774).
T5 construct: also called vDENV-4 E product
The assay can be described thus: radioimmunoprecipitation.

Assay [7] addresses T2, dengue type 2 virus (DENV-2), prototype …. The assay can be described thus: ELISA, virion-coated plate.
Assay [8] deals with T3, dengue type 3 virus (DENV-3), strain …. The assay is described as follows: ELISA, virion-coated plate.
For assay [9], the target named is T4, dengue type 1 virus (DENV-1), Western …. The assay can be described thus: ELISA, virion-coated plate.
Assay [10] concerns the target DENV-4 prM glycoprotein (dengue type 4 virus, UniProt P09866 114-279). The assay can be described thus: radioimmunoprecipitation of prM expressed alone by recombinant vaccinia virus.
The target of assay [11] is T5, DENV-4 E glycoprotein. The assay is described as follows: radioimmunoprecipitation of E expressed alone by recombinant vaccinia virus.
Assay [12] deals with T2, dengue type 2 virus (DENV-2), prototype …. The assay is described as follows: ELISA, virion-coated plate, Fab from ~140 µg/ml.
Assay [13] concerns the target T3, dengue type 3 virus (DENV-3), strain …. The assay is described as follows: ELISA, virion-coated plate, Fab from ~140 µg/ml.
Assay [14] addresses T4, dengue type 1 virus (DENV-1), Western …. The assay can be described thus: ELISA, virion-coated plate, Fab from ~140 µg/ml.
In assay [15] the target is T2, dengue type 2 virus (DENV-2), prototype …. The assay is described as follows: ELISA, virion-coated plate. The source holds these as a separate data set.
Assay [16] deals with T3, dengue type 3 virus (DENV-3), strain …. The assay is described as follows: ELISA, virion-coated plate. The source holds these as a separate data set.
Assay [17] has as its target T4, dengue type 1 virus (DENV-1), Western …. The assay can be described thus: ELISA, virion-coated plate. The source holds these as a separate data set.
In assay [18] the target is T6, DENV-2 antigenic variant NGB-V2 (dengue type 2 virus).
In assay [19] the target is T7, DENV-2 antigenic variant NGB-V1 (dengue type 2 virus).
Assay [20] deals with T1, dengue type 4 virus (DENV-4), strain …. The assay is described as follows: ELISA, virion-coated plate, Fab from ~140 µg/ml.
Assay [21] shares this target. The assay can be described thus: cell-based or functional assay. This is another data set of the same source.
Assay [22] deals with T2, dengue type 2 virus (DENV-2), prototype …. The assay can be described thus: cell-based or functional assay.
Assay [23] has as its target T3, dengue type 3 virus (DENV-3), strain …. The assay is described as follows: cell-based or functional assay.
Assay [24] addresses T4, dengue type 1 virus (DENV-1), Western …. The assay is described as follows: cell-based or functional assay.
Assay [25] has as its target T1, dengue type 4 virus (DENV-4), strain …. The assay can be described thus: ELISA Kd.
Assay [26] deals with T8, DENV-4 mutant containing Leu107Phe (dengue type 4 virus, UniProt P09866 280-774).
T8 construct: Mutant virus; also called mutant Leu107Phe
The assay can be described thus: ELISA Kd.

Assay [27] has as its target T6, DENV-2 antigenic variant NGB-V2. The assay can be described thus: ELISA Kd against parental DENV-2 NGB.
The target of assay [28] is T7, DENV-2 antigenic variant NGB-V1. The assay can be described thus: ELISA Kd against parental DENV-2 NGB.
Assay [29] deals with WNV/DENV-4 chimera (West Nile virus). The assay is described as follows: cell-based or functional assay.
The target of assay [30] is T1, dengue type 4 virus (DENV-4), strain …. The assay is described as follows: cell-based or functional assay. The source holds these as a separate data set.
Assay [31] has as its target T6, DENV-2 antigenic variant NGB-V2. The assay can be described thus: cell-based or functional assay.
The target of assay [32] is T7, DENV-2 antigenic variant NGB-V1. The assay can be described thus: cell-based or functional assay.
For assay [33], the target named is T8, DENV-4 mutant containing Leu107Phe. The assay is described as follows: cell-based or functional assay.
Assay [34] has as its target DENV-2 NGB-V1/DENV-4 chimera (dengue type 2 virus). The assay is described as follows: cell-based or functional assay.
The target of assay [35] is chimeric DENV-2 (NGB-P)/DENV-4 (dengue type 2 virus). The assay is described as follows: cell-based or functional assay.
Assay [36] has as its target DENV-2 NGB-V2/DENV-4 chimera (dengue type 2 virus). The assay can be described thus: cell-based or functional assay.
The target in assay [37] is DENV-2 New Guinea C (NGC) parent virus, mouse-adapted (dengue type 2 virus, UniProt P14340 281-775). The assay can be described thus: cell-based or functional assay.

B1: chimpanzee Fab 5A7 (Fab, V domains shown)
VH: EVQLLESGGGLVQPGGSLRLSCAASGVTFSSYWMHWVRQAPGKGLEWVSRINSDGSSTNYADSVEGRFTISRDNAKNTLYLQMNSLRAEDTAVYYCSRGGLWDWSPRRIEETKTPFDYWGQGTLVTVSS
VL: ELTQGPATLSLSPGERATLSCRAGQSLDSSLLSWYQQKPGQAPRLLMYDASTRAPGVPARFSGSGSGTDFTLTISSLQPEDFAVYYCQQHYNLPRTFGQGTKLEIKR
Turning to B1, the “ELISA titer of Fab binding” value in assay [1] was 3.41 log10 of reciprocal dilution; in assay [2], 2.51 log10 of reciprocal dilution; in [3], 2.51 log10 of reciprocal dilution; in [4], 2.51 log10 of reciprocal dilution. For the same molecule, the “PRNT50 titer” value in assay [5] was more than 200 µg/mL. The binding result in assay [6] is recorded as “no binding”.

B2: chimpanzee Fab 5D9 (Fab, V domains shown)
VH: EVQLLESGPGLVKPSETLSLTCTVSGGSISDFYWSWLRQSPGKGLEWIGVAHSRVSAYYNPSLKSRVTISVDTSKNQLSLRLSAVTAADAALYYCARQGTGTTGVSEDPFDLWGQGTKVIVSL
VL: ELTQSPSSLSASVGDRVTITCRASQGISNRLNWYQQKPGQGPKFLMYDASSLVSGVPSRFSGSGSGTDFTLTISSLQPEDFAVYYCQQFNSYPLTFGGGTKLEIKR
As for B2, the “ELISA titer of Fab binding” value is 3.41 log10 of reciprocal dilution in assay [1], < 1 log10 of reciprocal dilution in assay [2], < 1 log10 of reciprocal dilution in assay [3] and < 1 log10 of reciprocal dilution in [4]. Also, in assay [5], the “PRNT50 titer” value worked out at 0.58 µg/mL. The binding result in [7], in assay [8], in assay [9] and in assay [10] was “no binding” throughout.

B3: chimpanzee Fab 5H2 (Fab, V domains shown)
VH: EVQLLESGPGLVKPSETLSLTCTVSGGSISDFYWSWLRQSPGKGLEWIGYAHSRVSAYYNPSLKSRVTISVDTSKNQLSLRLSAVTAADTALYYCARQGTGTTGVSEDPFDLWGQGTKVIVSL
VL: ELQMTQSPSSLSASVGDRVTITCRASQDISIRLNWYQQKPGKAPKLLIYDASTLESGVPSRFSGSGSGTDFTLTISSLQPEDFATYYCQQFNSYPLTFGGGTKVEIKR
For the molecule B3, the binding result in [11] is “binds”; in assay [15] it was “no binding”; in [16], “no binding”; in [17] it was “no binding”. The “ELISA titer of Fab binding” value in assay [12], in assay [13], in assay [14], in assay [2], in assay [3] and in assay [4] was < 1 log10 of reciprocal dilution each time.

B4: chimpanzee Fab 1A5 (Fab, V domains shown)
VH: EVQLLESGGGLVQPGGSRRLSCAASGFTISDNVMHWVRQAPGKGLEWVALIYSADTTHYADSVKGRFTISRDNSKNTLYLQMDSLRPEDTAVYYCAREYCTGDTCFAHFDYWGQGTLVSVSS
VL: ELQMTQSPSSVSASVGDTVTIACRASQSITNYLSWYQQKPGKAPKLLIYHASTLQSGIPSRFSGSGSGTDFTLTISSLQPDDFATYYCHYGYGTHTFGQGTKLEIKR
On to B4, for which the Kd was 37.8 nM in [18], 0.75 nM in [19], 0.65 nM in [25] and 3.07 nM in assay [26]. Besides, the “ELISA titer of Fab binding” value was 3.8 log10 of reciprocal dilution in [20], 3.8 log10 of reciprocal dilution in [12], 3.8 log10 of reciprocal dilution in [13] and 4.1 log10 of reciprocal dilution in assay [14]. In addition, the “PRNT50 titer” value in assay [21] stood at 4.23 µg/mL; in [22], 0.77 µg/mL; in [23], 3.49 µg/mL; in [24], 0.49 µg/mL; in [29] it was 4.8 µg/mL; in assay [30] it was 4.3 µg/mL. For the same molecule, the PRNT50 titer in assay [31] is more than 70 µg/mL; in assay [32], 12 µg/mL; in [33] it was approximately 50 µg/mL; in assay [34] it was 31.7 µg/mL; in assay [35], 0.64 µg/mL; in assay [36], more than 70 µg/mL. Further, in assay [37], the PRNT50 titer came out at 0.89 µg/mL. In addition, the “Affinity Reduction (fold)” value in assay [27] was 80.3 fold; in assay [28], 1.6 fold.
